# Test results reported in a protein production outcome set (Wang et al. 2014).
# Assay: label from the status in PepcDB records
# 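Also: failed if final PepcDB status was selected cloned or expressed and not failed if soluble or beyond.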
row,Sequence,protein production
1,MINYNKTQHLIESMVFERVVPGVNYAFIKNKQIFTSTTGFASIYPEVTQLSPFAEYDLASLTKVLATENVLLKLYDQGELNFTEPLKEFIPTFKDPKVRLYHLLTHTSGIRGWIPHRDELSHDELLNALINLPVTDEFEHKMRYADTNFILLGLVIKSIFGASVQEVATKEIFDQMPLINTTFTPNKSECVPTAIINDQVLQGIPHDPKARQLGLDCGSAGLFSNMRDLITFSQGYLGLKRNVLPYSQDTVSELFDDKTPKGVKPRSWGWDIRFDPKYHYPIILHTGFTGTLIILDRLKKSGLILLTNRVHPTGHNTIFLAMREKIIRSFLNENSKI,failed
2,MAYGDKDEVLSVDVGSNAKVMKHLDGDDAMKKAQVRGRSGQEFSKETTKMMMKKTTKKETNVEEEDDLVAYTADYWKPRHHPPKNN,failed
3,NQPKRALRYNKRFMGDRRYMSFWSWLTTGNFVNKEFSYYKVPMELDVFDQDAFAESGVPFYVVATDIKTGKPDYIKIDHVFEQMEALRASSALPLVSEIVEYKGKRYMDGGLADSLPI,failed
4,MSADTSSLDFHPLRADLYQELHSRPFQIIPPHARVTQIAVITTPEQRTRQFEHLQKLHRLLGEPWPEQEVSCYEQSFGKLRIRREVHMEFTSYTFINLADSDADPFAETGLSLLPDGWLAQLEGTVVGAFHVEVRSSSEDARSELAFMRKHFEGMRLVGSSPQEGAARVLGSFQLHSDNFGRFMVLNHHMSNSQLGRLIQRLMEIETYRLMSLLALPVAREITPSLNDMDQQLARITQSLADNESLDEQQILAELTNIAARIEAYRAHTTFRFSATRAYHRLVLTRLEELREDEVSGHLTITEFMTRRLTPAVKTCEAVNERLEDLSRRVDRASEMMRTRVELAIQSQNQQLLSSMDRRSRIQLMMQHTVEGFSVVAISYYLIGLLKLGLDALTGTGLTINEPLVTGLAIPVVMVLVFIGIRTIHHRFIRMARRQ,failed
5,MGSSHHHHHHSSGENLYFQGHMDVLASGEKSRMLFERTKELFPGGVNSPVRAAVKPYPFYVKRGEGAYLYTVDGARIVDLVLAYGPLILGHKHPRVLEAVEEALARGWLYGAPGEAEVLLAEKILGYVKRGGMIRFVNSGTEATMTAIRLARGYTGRDLILKFDGCYHGSHDAVLVAAGSAAAHYGVPTSAGVPEAVARLTLVTPYNDVEALERVFAEYGDRIAGVIVEPVIANAGVIPPRREFLAALQRLSRESGALLILDEVVTGFRLGLEGAQGYFNIEGDIIVLGKIIGGGFPVGAVAGSREVMSLLTPQGKVFNAGTFNAHPITMAAGLATLKALEEEPVYSVSREAAKALEEAASEVLDRTGLPYTINRVESMMQLFIGVEEVSNAAQARKADKKFYVKLHEEMLRRGVFIAPSNLEAVFTGLPHQGEALEIAVEGLRSSLKTVLGS,not failed
6,MGNFSLFSSFNPEGQHDDVANRWRSPTPMRYIIPNIITILAICAGMSSIRLAFEHRYEAAILMVLLAAILDGADGRIARLMDGSSSFGAQMDSLADVINFGVAPSLIVYSFVLNQAHQVGWIAGLVYCVACCLRLARFNVMLDNTDIPKWQGNYFVGVPAPAGALLLLLPMYLGALGLVPSWSWALFFSLYTVIIAFLLVSRLPVWNGKTINQNLRRDIVVPCMLGIVIYVGFLATYTWHTLLITAVSYMIFLPCSFVAYNKRAALEEKKANIKTLSSS,failed
7,MDSLMTLLSVLIPMFAGFFIRVPKPYLPALDKVLSVLVYAVLLLIGVSLSRVEDLGSRLDDMALTVLWLFVCTVGANLLALAVLGKLFP,failed
8,MSDLINIQKKLLPDVLMIMQKRYQILRSIYFSEPVGRRTLAGMLGMSERVLRGEVEFLKAQGLVEIASSGMTVTKEGLVVFRDLENVMNQLSGLHSMEEQLAKKLQIKKCLVVQGDSDDTPWVREEMGRVAVEQLDMALTEKRNIVAVMGGSTMATVAEMMTTDFAKGRELLFVPGRGGIGEDLDNQANTICDKMATKTNTKHRVLYVPEQLGEEAYRSLLKEPAIQEGLRLVQSANAIILGIGDALAMAKRRHTGEDVLEKIIRRKAVGEAFGYYFDEQGEVVHKVPTFGLQFEDLAQIPHIIAVAGGTSKAKAIKSYMKSAPKNTILITDEGAAKSLLKGSNTLLK,failed
9,MEFIVDSVDKTMHIGRQLGSLVNKGDILCLTGDLGTGKTHISKGIAEGLGIDEHITSPTFNIVNEYHSGRLTLYHFDVYRVNDPDEIEAIGFDEYIFGDGVSLIEWANYIEELIPEEYIHIKIEKLPDMGENFRKITINGYGDRYNYIKEIKECLEHHHHHH,not failed
10,MKQSGTAAHKLTIFYVGMLLLFLIGLWLFATIGKELETNVVDKAMSLRGRGGLVGAFDSFSESVHHHFTDTIGVLLLQIIVILTVARLVAWFFGKIGQPTVIGEIVAGILLGPSLLGAVWPEAYEVLFPLSALANLELLSQFGLILFMFVIGMELNINDIKPRFSQSMIISHAGIFIPFLLGLLISYMTYKDYAADTTTFLPYGLFIGISMSITAFPVLARIIQERQLGKSHLGMLSISTAAAGDISAWLMLAGVMAITQSGSFLSAIYNFLFLILYLLVIFGLVRPFFKVIGRLYDNQEVVSKTMIGFIFVLLLASAYATELLSMHALFGAFMLGLVMPENVQFRKILTEKVEDVSLTLFLPLFFVSSGLQTKLGLLDSASLWLLTGAFTLIAIIGKFGGTYVAARFCGERKKASLYLGAFMNTRGLMELVVLAIGRELGILPPVIFTILVMMTLITTFMTTPLLRLIDLFFKRETELENAALQKENSGAVLLSFGRASSGAHLLHATDLLMHRGDEKPSVTALHITVGSDTNLTSSEVYEERAFAPIREESDRRRLPIRTLHHHTFEHPEAEVVRTVNAGGYSFLLVGAGINLSDRKSDRELLYFRKKLQRKLGPISIATPEALLNAHEMLRDKMHYFIEQTQCSVGIFIHRGFKHAGKVLLLMENEGDEELLAYARSLARNNGSVLDVLPETDGLPPTLSMGENRLKAGLPSTINISSYHFMLVSYRYWLRFAGECPSVIEHLPSTIIIHHRNDRSSTLKAAMI,failed
11,MFSPEQIAGKDVRLLRIKKEGSLDLALEGGVDSPVGKVVVSAVYEGGAAERHGGVVKGDEIMAINGKIVTDYTLAEAEAALQKAWNQGGDWIDLVVAVCPPKEYDDELTFF,not failed
12,ATPPISNLTKTASESISNLSEAGSIKKGERELKIGDRVLVGGTKAGVVRFLGETDFAKGEWCGVELDEPLGKNDGAVAGTRYFQCQPKYGLFAPVHKVTKIGFPSTTPAKAKANAVRRVMATTSASLKRSPSASSLSSMSSVASSVSSRPSRTGLLTET,not failed
13,MIRRALLIASLAALAGCAGLDAIQNAYQGIQDYFTGKDNAEPPAPLAEITPQVKADKLWMAEIGDGYDDQGINLGPAVDDSRVFAAERHGTVQAFNRLTGEKLWSVDHEMDLSAGPVFDDGELFLATAEGAVIVLNAADGALVWKSTLASEILSVPAVADDVVVVRGTNGHLTGLDRKSGATLWYFERHAPPLAIRSRGAPIIAGDLVIDGFGGGKVSAIQLKEGRLDWEANVSLPHGRSEIERLVDLSATPVVRNDVVFVSGYQGGTASLGLNTGEVQWKRESISSPAGMTADRRELYVTDANADLWQLAIRNGEDQWKQTELHQRRLTAPALVKDYLVVGDFEGYLHVLNKEDGRIVGRVQVTDAPIEYPPVVYGDIVYVYATDGTLAAITVD,failed
14,MASRSRRPERRQEPLSRERIVGAAVELLDTVGERGLTFRALAERLATGPGAIYWHITGKAELLGAATDAVVTAAVTAGPTGAADSPQDAVRAVALGLWDATEAHPWLATQLATQLSRTPWGTVAPRIFESLGRQVQAMGVPEAHWFTASSALMHYILGAAGQNAANSASAGPVGADVDRDEFLDTVSTAWEGLDPDAYPFTRAVADQVRGHDDREQFLAGITLVLTGITALHRPGR,not failed
15,MDFAHLDQQLRDSVLDLKLSNEERDELRQLGSELGQDQVRYMRNRAFDLVRELALADSVNVLPALKWLEQVIKTLDANSAPVRDMASAHFSPGEDCRRKIRDLCRQARISVDICVFTISDDQLSDEIRACHQRGVAVRVISDSEKQFDVGSDIAALREAGVPVRIDDTPFHMHHKFAVFDGRTLLNGSFNWTRSATTGNEENLLVIDHPQLVASYLKEFNELWSRYAPR,failed
16,MSHEQPVTVSVARTILPGYTRQANAWAHAGQELAREWPGYLGSGWVRNGVDSAEWHMLYRFADADSLQEWEDSEERRWWIDSARDMMETTRVERHTGIEGWFSRPGDVSVVVPETVVPPRWKQAISIFLPFFPLSLLANFLLHPLTQDWQLVLSVLLNIVILTPLMTYIFLPITTRLLQPWLQAKPRKRPR,failed
17,MSQSPSPPDSPSASPDSPSASPMHAFLLCAGFGTRMRPVTAETPKSLVTVAGRPLLDHLLDELTAWSALTEIHVAVNHEDAPAFREWAAGHRADLETQGIGLHLHDDGVEAPDDQLGCVGDLRFLLDAVGLPADGALVSGGDSLYRFPLAPLLNAYDGTTNRVLALHEPDPERRAQSSVLQLDGPTVTAVHDDPTGTASTRICPSWLLLSAEGLGAIVPYLDDGGPPDTLGAFLDRLARTHSVQAHRLPQTGHLRLHCNTPDDLEHARKLLRKGPRHVLGPAPVRASLPEPAS,failed
18,MVDINRRGALGSLLAGAGLAALPASAEAAQMGLLPAKPTSGPTWTTGIEGQRKADLGDGTFLNPILTGDRPDPSILKDGADYYMTHSSFDAYPGLLIWHSRDLVNWTPVTTTLKTNVGSIWAPELCKHKGRYYIYLPAKFPGNNTSYVIWADKIEGPWSEPIDLKLPRYIDPGHIVDEAGERWLFLSGGDRIKLAPDGLSTVGKPEHVYDPWRYPDDWDVEGFSPEGPKLMRRGEYFYMITAVGGTAGPPTGHMVIAARAKSLAGPWENHPRNPLVRTTDNAEKWWSRGHATLVEGPTPGDWWTVYHGYENGYYTLGRQTLLAPVTWTADGWFDIGGGDLSQPIKKPKGGKPGPHGMALSDDFSTDKYGVQWNFFDPKPGEQDRIKREGGVLTLKGAGEAPSTGSPLIFVNGDQAYEIECEIEIEPETRAGLILFYDRQLYCGLGFDAKNFVTHQYGIERGRPANPHGAKMLMRLRNNRHIVSFHTSGDGGKTWKRFDRGMEVSGYHHNVRGGFLMLKPGIYAAGKGSARFRGFKYRALP,failed
19,EGLNICKKIMVISDKNDAISEFIIKELERGCTIIDGKGGYTGKDTYILYTVLNRKEFIRLRIFIKETDPNAFITISDAKEVLGEGFKEI,not failed
20,RYTNILVPVDSSDAAQAAFTEAVNIAQRHQANLTALYVVDDSAYHTPALDPVLSELLDAEAAHAKDAMRQRQQFVATTSAPNLKTEISYGIPKHTIEDYAKQHPEIDLIVLGATGTNSPHRVAVGSTTSYVVDHAPCNVIVIR,not failed
21,MIPTHLPILQVVVPLMAAPVCILLRRPGLCWAWALLIALTTLTMAVGLLAGVLTHGPSAYHLGDWSPPWGIELHVDLLSALVLVLVTATASLVIVYARASFAAEIDPGHHTLAYCLFLLCLTGLLGMAITGDAFNLFVFLEISSLSSYALVALGRDRRALYAAYHYLILGTVGATFYVIGIGFLYMMTGTLNMNDLAQRLPAVAHSRTAVAGVVFLGVGLSLKLALFPLHKWLPAAYSYAPSAVGAFLAATSTKVAFYVMVRLFLGVLAPAFSANLLPGPVSAREMVMVLALAAILSGSFSAIFQSDAKRLLAYSSVSQIGVMVLGLSLFSLDGVAGGLVHMLNHALIKASLFMALGCVFLRIGSVEIADMAGIGRRMPWTMAAFVIGGLSLIGIPGTAGFISKWQLAQSAIAEGWWLAVAALIASSLLAVVYVGKVIEAAYFRPSPAESPSGAPSAPQEAPAMMLAPLWIAALANIGFGLNTTWTLGLAKRAASALMGLPS,failed
22,MNKEQLQQMRQAPGFVGALDQSGGSTPKALKAYGIQPDAYQSEEEMFDLIHQMRTRMITSPAFATGKIIGVILFERTMRGKIEGMPTADFLWEKRHIVPFLKVDKGLQDEANGVQLMKPFPELGKLCEEAVGYHVFGTKMRSVIKQANEQGIRDIVEQQFQWGKEILSHGLVPILEPEVDIHCPEKAKAEEILKRELLAQLDKMTEPVMLKITIPTVDNFYKEIIEHPMMLRVVALSGGYSREQANELLSRNHGVIASFSRALVEGLSARQTDAEFNAMLEASIEDVYQASIK,not failed
